In US20150173367 one finds Kd data, which are given here for one substance.

This series deals with RepN (N-terminal 191 residues of TYLCV Rep) (Tomato yellow leaf curl virus). The experiment in a line: EMSA. Particulars: 10 mM Tris-HCl, 100 mM NaCl, 5 mM MgCl2, 0.1 mM ZnCl2, pH 7.5, on ice.

In turn, “TYLCV replication origin DNA containing Rep-binding direct repeats” returned a dissociation constant Kd of 30 nM.
